How the values were obtained:
purified protein [1] = substrate: Cc1cc(=O)oc2cc(NC(=O)[C@@H](N)CC(=O)O)ccc12; assay: purified protein; details: 50 mM Tris-HCl pH 7.5, 37°C
purified protein [2] = substrate: Cc1cc(=O)oc2cc(NC(=O)[C@@H](N)CCC(=O)O)ccc12; assay: purified protein; details: 50 mM Tris-HCl pH 7.5, 37°C

B1: DNPP-1 (Caenorhabditis elegans) (protein)
chain: MAAALKPSAPEIRKAAQEFINYLNKAVTPFHATQEVKDRLLQAGFTELPESGHWDIQPTSKYFVTKNRSAILAFAVGGSYKPGSGFSIVVGHTDSPCLRVKPISHQKSDKFLQVGVSTYGGGIWRTWFDRDLSVAGLVIVKNGEKLQHKLIDVKKPVLFIPNLAIHLETDRTTFKPNTETELRPILETFAAAGINAPQKPESTGFADPRNITNNHHPQFLGLIAKEAGCQPEDIVDLDLYLYDTNKAAIVGMEDEFISGARLDNQVGTYTAISGLLESLTGESFKNDPQIRIAACFDNEEVGSDSAMGASSSFTEFVLRRLSAGGSTTAFEEAIGKSMLISADQAHATHPNYSAKHEENHRPAFHGGVVVKVNVNQRYATTSTTHAALKQVAFEAQVPLQVVVVRNDSPCGSTVGPILATKLGLQTVDVGCPQLAMHSIREFADTSSIYQATTLYSTFYERLSTVLSNMQ
- Km (purified protein [1]): 13.58 10^-3 mM
- kcat/Km (purified protein [1]): 10300 M⁻¹ s⁻¹
- kcat/Km (purified protein [2]): 15300 M⁻¹ s⁻¹

— publication PMC3623637
